Experimental data taken from patent US7067474B1, “Agents for treating human illnesses based on β-catenin, and the production and use thereof” (Max-Delbruck-Centrum fur Molekulare Medizin, priority 1998, dated 2006).

Experiments:
[1] = target: conductin amino acids Ala342-Arg465 fused to Lex-A (vector BTM 116) (UniProt P0A7C2); test: yeast 2-hybrid, β-galactosidase reporter; percent of wild type β-catenin
[2] = target: human APC amino acids Ser1259-Asp1400 (APC 20 amino acid repeats) fused to Lex-A (vector BTM 116) (human); test: as above
Sequence of human APC amino acids Ser1259-Asp1400 (APC 20 amino acid repeats) fused to Lex-A (vector BTM 116) (human) (P0A7C2 other isoform, or with tags, fused parts or gaps limits assumed, form in doubt): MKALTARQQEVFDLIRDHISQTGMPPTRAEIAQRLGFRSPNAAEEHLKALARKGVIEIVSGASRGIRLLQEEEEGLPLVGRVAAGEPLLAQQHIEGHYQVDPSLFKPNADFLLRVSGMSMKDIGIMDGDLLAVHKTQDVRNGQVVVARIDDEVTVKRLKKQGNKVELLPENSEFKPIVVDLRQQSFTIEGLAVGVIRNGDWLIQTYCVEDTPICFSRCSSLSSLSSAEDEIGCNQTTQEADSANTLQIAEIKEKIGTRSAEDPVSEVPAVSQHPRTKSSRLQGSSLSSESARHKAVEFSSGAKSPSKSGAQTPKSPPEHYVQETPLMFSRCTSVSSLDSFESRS

[3] = target: human APC amino acids His1012-Glu1215 (APC 15 amino acid repeats) fused to Lex-A (vector BTM 116) (human); test: as above
Sequence of human APC amino acids His1012-Glu1215 (APC 15 amino acid repeats) fused to Lex-A (vector BTM 116) (human) (P0A7C2 other isoform, or with tags, fused parts or gaps limits assumed, form in doubt): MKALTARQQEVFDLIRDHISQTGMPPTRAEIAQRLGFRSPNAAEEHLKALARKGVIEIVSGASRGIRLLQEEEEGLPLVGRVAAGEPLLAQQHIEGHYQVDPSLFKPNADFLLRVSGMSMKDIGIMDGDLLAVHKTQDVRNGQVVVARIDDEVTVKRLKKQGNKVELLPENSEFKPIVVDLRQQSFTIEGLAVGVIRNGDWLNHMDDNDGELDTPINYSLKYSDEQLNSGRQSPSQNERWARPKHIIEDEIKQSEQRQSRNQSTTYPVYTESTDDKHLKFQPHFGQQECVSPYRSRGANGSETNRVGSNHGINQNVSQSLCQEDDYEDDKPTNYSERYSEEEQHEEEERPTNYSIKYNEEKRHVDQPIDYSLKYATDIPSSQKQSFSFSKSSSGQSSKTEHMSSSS

[4] = target: E-cadherin amino acids Gln773-Asp884 (cytoplasmatic domain) fused to Lex-A (vector BTM 116) (UniProt P0A7C2 1-202; P09803 773-884); test: as above
Sequence of E-cadherin amino acids Gln773-Asp884 (cytoplasmatic domain) fused to Lex-A (vector BTM 116) (P0A7C2 other isoform, or with tags, fused parts or gaps limits assumed, form in doubt): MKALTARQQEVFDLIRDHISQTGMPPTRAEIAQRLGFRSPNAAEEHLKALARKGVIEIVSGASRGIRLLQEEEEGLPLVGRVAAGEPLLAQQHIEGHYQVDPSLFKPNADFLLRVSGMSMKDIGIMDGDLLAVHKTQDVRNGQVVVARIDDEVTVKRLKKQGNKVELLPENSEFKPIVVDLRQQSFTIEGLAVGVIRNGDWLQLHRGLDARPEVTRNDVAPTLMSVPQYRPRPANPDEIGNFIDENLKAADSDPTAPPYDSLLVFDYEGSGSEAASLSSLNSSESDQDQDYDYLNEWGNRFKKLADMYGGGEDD
Method: (§1) 4. Preparation and testing of mutants of β-catenin modulating the interaction with LEF-1, APC, conductin or E-cadherin The mutagenesis of β-catenin in the armadillo repeats 3–8 was carried out by means of the "mutagenesis kit" of the company Clontech according to the producer's record and the mutants were checked by sequencing (FIG. 5). In all mutants the original amino acid was substituted by alanine. For analyzing the interactions the cDNA of human β-catenin (armadillo repeat 3 up to the C-terminal end of the protein) coding for the amino acids Leu218–Leu7 µl or its mutants was cloned into the fusion vector for the activation domain of Gal-4 (pGAD424, Clontech). The cDNA for the binding domains of the interaction partners was cloned into the Lex-A fusion vector BTM 116. To this end, the cDNA of LEF-1 for the amino acids 1–99, conductin for the amino acids Ala342–ARG465; of human APC for the amino acids His1012–Glu1215 (APC 15 amino acid repeats) and for the amino acids Ser1259Asp 1400 (APC 20 amino acid repeats) and E-cadherin for the amino acids Gin773–Asp884 (cytoplasmatic domain) were amplified with the respective primers PCR. The interaction of the Lex-A hybrids with β-catenin and its mutants was quantified by means of the β-galactosidase reporter activity in the yeast 2-hybrid system (report: "Matchmaker". Clontech) (Tab. 2 and FIG. 6).

LEF-1 = target: T1, LEF-1 (Mus musculus, UniProt P27782); test: yeast 2-hybrid: interaction of β-catenin mutants with LEF-1; assay type: binding; conditions: yeast 2-hybrid, alanine mutants
T1 construct: the cDNA of LEF-1 for the amino acids 1–99; expressed in transfected cells; host or cells: yeast (two-hybrid, Matchmaker, Clontech)
T1 sequence (P27782 1-99): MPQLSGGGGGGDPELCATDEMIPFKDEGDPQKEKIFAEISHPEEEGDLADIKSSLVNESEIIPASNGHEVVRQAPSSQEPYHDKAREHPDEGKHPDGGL

E-cadherin = target: T2, E-cadherin (Mus musculus, UniProt P09803); test: yeast 2-hybrid: interaction of β-catenin mutants with E-cadherin; assay type: binding; conditions: alanine mutants
T2 construct: E-cadherin for the amino acids Gin773–Asp884 (cytoplasmatic domain); expressed in transfected cells; host or cells: yeast (two-hybrid, Matchmaker, Clontech)
T2 sequence (P09803 773-884): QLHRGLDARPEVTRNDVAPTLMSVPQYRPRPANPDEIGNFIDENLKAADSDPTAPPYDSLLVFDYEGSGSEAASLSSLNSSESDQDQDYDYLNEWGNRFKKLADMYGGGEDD
Method in brief: (§2)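 Alanine-substituted human β-catenin mutants (armadillo repeat 3 to C-terminus, from Leu218) fused to Gal4 activation domain; partner fragments fused to LexA: E-cadherin Gln773–Asp884, APC His1012–Glu1215 or Ser1259–Asp1400, conductin Ala342–Arg465. Interaction quantified by β-galactosidase reporter activity in yeast.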

[5] = target: T3, APC (15 amino acid repeats) (Homo sapiens, UniProt P25054); test: yeast 2-hybrid: interaction of β-catenin mutants with APC 15 amino acid repeats; assay type: binding; conditions: yeast 2-hybrid, alanine mutants
T3 construct: of human APC for the amino acids His1012–Glu1215 (APC 15 amino acid repeats); expressed in transfected cells; host or cells: yeast (two-hybrid, Matchmaker, Clontech)
T3 sequence (P25054 1006-1209 limits assumed): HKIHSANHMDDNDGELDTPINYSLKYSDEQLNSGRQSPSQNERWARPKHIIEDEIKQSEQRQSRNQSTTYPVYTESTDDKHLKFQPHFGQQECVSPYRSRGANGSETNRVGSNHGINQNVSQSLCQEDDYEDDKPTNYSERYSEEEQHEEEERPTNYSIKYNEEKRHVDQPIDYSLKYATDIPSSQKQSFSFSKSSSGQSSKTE
Method in brief: as §2

[6] = target: T4, APC (20 amino acid repeats) (Homo sapiens, UniProt P25054); test: yeast 2-hybrid: interaction of β-catenin mutants with APC 20 amino acid repeats; assay type: binding; conditions: yeast 2-hybrid, alanine mutants
T4 construct: for the amino acids Ser1259Asp 1400 (APC 20 amino acid repeats); expressed in transfected cells; host or cells: yeast (two-hybrid, Matchmaker, Clontech)
T4 sequence (P25054 1253-1394 limits assumed): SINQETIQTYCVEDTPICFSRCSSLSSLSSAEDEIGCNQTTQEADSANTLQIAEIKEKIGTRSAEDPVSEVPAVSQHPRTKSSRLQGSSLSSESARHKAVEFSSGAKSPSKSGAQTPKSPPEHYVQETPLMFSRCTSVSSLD
Method in brief: as §2

conductin = target: T5, conductin (Mus musculus, UniProt O88566); test: yeast 2-hybrid: interaction of β-catenin mutants with conductin; assay type: binding; conditions: yeast 2-hybrid, alanine mutants
T5 construct: conductin for the amino acids Ala342–ARG465; expressed in transfected cells; host or cells: yeast (two-hybrid, Matchmaker, Clontech)
T5 sequence (O88566 343-465 limits assumed): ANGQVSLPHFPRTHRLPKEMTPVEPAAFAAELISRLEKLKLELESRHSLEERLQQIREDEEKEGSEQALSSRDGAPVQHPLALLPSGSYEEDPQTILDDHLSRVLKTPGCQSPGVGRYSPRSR
Method in brief: as §2

[7] = target: T6, LEF-1 amino acids 1-99 fused to Lex-A (vector BTM 116) (UniProt P0A7C2 1-202; P27782 1-99); test: yeast 2-hybrid, β-galactosidase reporter; percent of wild type β-catenin
T6 construct: Order of the fusion follows the vector; also called LEF-1/TCF-4
T6 sequence (P0A7C2 other isoform, or with tags, fused parts or gaps limits assumed): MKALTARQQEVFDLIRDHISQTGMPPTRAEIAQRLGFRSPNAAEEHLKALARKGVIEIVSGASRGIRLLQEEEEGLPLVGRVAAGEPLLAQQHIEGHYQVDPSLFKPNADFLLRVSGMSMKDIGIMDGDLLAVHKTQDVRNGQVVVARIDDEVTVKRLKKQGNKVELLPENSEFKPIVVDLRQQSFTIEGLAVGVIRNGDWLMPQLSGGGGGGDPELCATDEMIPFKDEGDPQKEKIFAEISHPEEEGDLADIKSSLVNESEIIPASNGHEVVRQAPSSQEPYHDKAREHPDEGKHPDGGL
Method: as §1

Sequence of conductin amino acids Ala342-Arg465 fused to Lex-A (vector BTM 116) (P0A7C2 other isoform, or with tags, fused parts or gaps limits assumed, form in doubt): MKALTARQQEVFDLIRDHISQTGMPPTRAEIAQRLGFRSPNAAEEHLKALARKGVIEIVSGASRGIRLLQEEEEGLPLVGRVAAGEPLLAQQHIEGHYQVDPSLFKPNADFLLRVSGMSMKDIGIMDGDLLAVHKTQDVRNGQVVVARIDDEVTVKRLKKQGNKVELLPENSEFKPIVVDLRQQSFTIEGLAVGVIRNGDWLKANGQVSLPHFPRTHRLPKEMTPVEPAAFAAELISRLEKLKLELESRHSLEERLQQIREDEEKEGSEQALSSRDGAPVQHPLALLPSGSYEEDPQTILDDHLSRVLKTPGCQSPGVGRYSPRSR

## human β-catenin (Leu218-Leu781) mutant Trp 338 to alanine, Gal-4 activation domain fusion (from UniProt P35222 218-781)
[1]
  share of the interaction with wild type β-catenin in percent: 20%
[2]
  share of the interaction with wild type β-catenin in percent: 55%

## human β-catenin (Leu218-Leu781) mutant Lys 435 to alanine, Gal-4 activation domain fusion (from UniProt P35222 218-781)
[3]
  share of the interaction with wild type β-catenin in percent: 30%
[1]
  share of the interaction with wild type β-catenin in percent: 42%

## human β-catenin (Leu218-Leu781) mutant Phe 253 to alanine, Gal-4 activation domain fusion (from UniProt P35222 218-781)
[1]
  share of the interaction with wild type β-catenin in percent: 17%
[2]
  share of the interaction with wild type β-catenin in percent: 40%

## human β-catenin (Leu218-Leu781) mutant Trp 383 to alanine, Gal-4 activation domain fusion (from UniProt P35222 218-781)
[3]
  share of the interaction with wild type β-catenin in percent: 59%
[2]
  share of the interaction with wild type β-catenin in percent: 0%

## human β-catenin (Leu218-Leu781) mutant Lys 292 to alanine, Gal-4 activation domain fusion (from UniProt P35222 218-781)
[1]
  share of the interaction with wild type β-catenin in percent: 5%
[2]
  share of the interaction with wild type β-catenin in percent: 28%

B1: human β-catenin (Leu218-Leu781) mutant Arg 274 to alanine, Gal-4 activation domain fusion (other, not shown: large carriers; small tags and cut ends)
chain: LHNLSHHREGLLAIFKSGGIPALVKMLGSPVDSVLFYAITTLHNLLLHQEGAKMAVALAGGLQKMVALLNKTNVKFLAITTDCLQILAYGNQESKLIILASGGPQALVNIMRTYTYEKLLWTTSRVLKVLSVCSSNKPAIVEAGGMQALGLHLTDPSQRLVQNCLWTLRNLSDAATKQEGMEGLLGTLVQLLGSDDINVVTCAAGILSNLTCNNYKNKMMVCQVGGIEALVRTVLRAGDREDITEPAICALRHLTSRHQEAEMAQNAVRLHYGLPVVVKLLHPPSHWPLIKATVGLIRNLALCPANHAPLREQGAIPRLVQLLVRAHQDTQRRTSMGGTQQQFVEGVRMEEIVEGCTGALHILARDVHNRIVIRGLNTIPLFVQLLYSPIENIQRVAAGVLCELAQDKEAAEAIEAEGATAPLTELLHSRNEGVATYAAAVLFRMSEDKPQDYKKRLSVELTSSLFRTEPMAWNETADLGLDIGAQGEPLGYRQDDPSYRSFHSGGYGQDALGMDPMMEHEMGGHHPGADYPVDGLPDLGHAQDLMDGLPPGDSNQLAWFDTDL
[1]
  share of the interaction with wild type β-catenin in percent: 29%
[2]
  share of the interaction with wild type β-catenin in percent: 40%
[4]
  share of the interaction with wild type β-catenin in percent: 50%

B2: Arg 457: human β-catenin mutant, Arg 457 substituted by alanine (arm 8) (protein)
chain: LHNLSHHREGLLAIFKSGGIPALVKMLGSPVDSVLFYAITTLHNLLLHQEGAKMAVRLAGGLQKMVALLNKTNVKFLAITTDCLQILAYGNQESKLIILASGGPQALVNIMRTYTYEKLLWTTSRVLKVLSVCSSNKPAIVEAGGMQALGLHLTDPSQRLVQNCLWTLRNLSDAATKQEGMEGLLGTLVQLLGSDDINVVTCAAGILSNLTCNNYKNKMMVCQVGGIEALVRTVLRAGDAEDITEPAICALRHLTSRHQEAEMAQNAVRLHYGLPVVVKLLHPPSHWPLIKATVGLIRNLALCPANHAPLREQGAIPRLVQLLVRAHQDTQRRTSMGGTQQQFVEGVRMEEIVEGCTGALHILARDVHNRIVIRGLNTIPLFVQLLYSPIENIQRVAAGVLCELAQDKEAAEAIEAEGATAPLTELLHSRNEGVATYAAAVLFRMSEDKPQDYKKRLSVELTSSLFRTEPMAWNETADLGLDIGAQGEPLGYRQDDPSYRSFHSGGYGQDALGMDPMMEHEMGGHHPGADYPVDGLPDLGHAQDLMDGLPPGDSNQLAWFDTDL
modifications: left off: large carriers; small tags and cut ends
LEF-1
  Interaction With LEF-1, share of wild type β-catenin interaction: — (Interactions marked by — correspond to 60–100% of the wild type interaction)
E-cadherin
  Interaction With E-Cadherin, share of wild type β-catenin interaction: — (Interactions marked by — correspond to 60–100% of the wild type interaction)
[5]
  Interaction With APC-15, share of wild type β-catenin interaction: — (Interactions marked by — correspond to 60–100% of the wild type interaction)
[6]
  Interaction With APC-20, share of wild type β-catenin interaction: — (Interactions marked by — correspond to 60–100% of the wild type interaction)
conductin
  Interaction With Conductin, share of wild type β-catenin interaction: 36%

B3: human β-catenin (Leu218-Leu781) mutant Arg 386 to alanine, Gal-4 activation domain fusion (other, not shown: large carriers; small tags and cut ends)
chain: LHNLSHHREGLLAIFKSGGIPALVKMLGSPVDSVLFYAITTLHNLLLHQEGAKMAVRLAGGLQKMVALLNKTNVKFLAITTDCLQILAYGNQESKLIILASGGPQALVNIMRTYTYEKLLWTTSRVLKVLSVCSSNKPAIVEAGGMQALGLHLTDPSQRLVQNCLWTLANLSDAATKQEGMEGLLGTLVQLLGSDDINVVTCAAGILSNLTCNNYKNKMMVCQVGGIEALVRTVLRAGDREDITEPAICALRHLTSRHQEAEMAQNAVRLHYGLPVVVKLLHPPSHWPLIKATVGLIRNLALCPANHAPLREQGAIPRLVQLLVRAHQDTQRRTSMGGTQQQFVEGVRMEEIVEGCTGALHILARDVHNRIVIRGLNTIPLFVQLLYSPIENIQRVAAGVLCELAQDKEAAEAIEAEGATAPLTELLHSRNEGVATYAAAVLFRMSEDKPQDYKKRLSVELTSSLFRTEPMAWNETADLGLDIGAQGEPLGYRQDDPSYRSFHSGGYGQDALGMDPMMEHEMGGHHPGADYPVDGLPDLGHAQDLMDGLPPGDSNQLAWFDTDL
[3]
  share of the interaction with wild type β-catenin in percent: 12%
[1]
  share of the interaction with wild type β-catenin in percent: 45%
[7]
  share of the interaction with wild type β-catenin in percent: 35%

B4: human β-catenin (Leu218-Leu781) mutant His 470 to alanine, Gal-4 activation domain fusion (other, not shown: large carriers; small tags and cut ends)
chain: LHNLSHHREGLLAIFKSGGIPALVKMLGSPVDSVLFYAITTLHNLLLHQEGAKMAVRLAGGLQKMVALLNKTNVKFLAITTDCLQILAYGNQESKLIILASGGPQALVNIMRTYTYEKLLWTTSRVLKVLSVCSSNKPAIVEAGGMQALGLHLTDPSQRLVQNCLWTLRNLSDAATKQEGMEGLLGTLVQLLGSDDINVVTCAAGILSNLTCNNYKNKMMVCQVGGIEALVRTVLRAGDREDITEPAICALRALTSRHQEAEMAQNAVRLHYGLPVVVKLLHPPSHWPLIKATVGLIRNLALCPANHAPLREQGAIPRLVQLLVRAHQDTQRRTSMGGTQQQFVEGVRMEEIVEGCTGALHILARDVHNRIVIRGLNTIPLFVQLLYSPIENIQRVAAGVLCELAQDKEAAEAIEAEGATAPLTELLHSRNEGVATYAAAVLFRMSEDKPQDYKKRLSVELTSSLFRTEPMAWNETADLGLDIGAQGEPLGYRQDDPSYRSFHSGGYGQDALGMDPMMEHEMGGHHPGADYPVDGLPDLGHAQDLMDGLPPGDSNQLAWFDTDL
[3]
  share of the interaction with wild type β-catenin in percent: 60%
[2]
  share of the interaction with wild type β-catenin in percent: 47%
[7]
  share of the interaction with wild type β-catenin in percent: 2%
